The text below walks through data of US20220288124A1 (AUGUSTA UNIVERSITY RESEARCH INSTITUTE, published 2022).

As usually defined, the EC50 is the concentration at which the effect is half-maximal. The Kd is the constant that tells how readily two partners part at equilibrium. The term kon denotes a measure of how fast the partners come together. What is called koff is a measure of how fast the partners let go of each other. Usually EC50 (read off the curve) stands for the concentration at which the effect is half-maximal.

Values joined by “and” are separate entries in the source; they are usually repeats but may differ in a detail not shown here. Equal values may be shown once.

For assay [1], the target named is T1, soluble hGPC3 protein (recombinant human glypican 3) (human, UniProt P51654 25-560, limits assumed).
T1 construct: The construct used in ELISA and BLI and as FITC-labelled protein is not further defined; also called rhGPC3; FITC-labeled hGPC3
T1 sequence (P51654 25-560 limits assumed): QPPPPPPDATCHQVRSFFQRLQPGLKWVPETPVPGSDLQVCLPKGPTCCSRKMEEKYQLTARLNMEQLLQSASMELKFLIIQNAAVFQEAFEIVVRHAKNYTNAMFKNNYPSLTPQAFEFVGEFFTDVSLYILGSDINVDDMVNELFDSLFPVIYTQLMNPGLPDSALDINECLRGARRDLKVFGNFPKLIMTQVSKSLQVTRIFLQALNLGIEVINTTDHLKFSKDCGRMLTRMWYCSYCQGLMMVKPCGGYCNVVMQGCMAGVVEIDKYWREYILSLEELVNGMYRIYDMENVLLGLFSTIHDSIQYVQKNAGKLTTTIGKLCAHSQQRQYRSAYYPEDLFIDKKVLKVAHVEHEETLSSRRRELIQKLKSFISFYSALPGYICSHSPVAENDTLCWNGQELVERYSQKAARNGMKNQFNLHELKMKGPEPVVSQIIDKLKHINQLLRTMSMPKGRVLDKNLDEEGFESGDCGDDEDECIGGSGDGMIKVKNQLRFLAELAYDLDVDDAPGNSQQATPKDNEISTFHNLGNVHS
Kind of assay: ELISA of recombinant mAb on hGPC3, OD450.

Assay [2] has as its target T1, soluble hGPC3 protein (recombinant …). Briefly: BLI, 1:1 global fit; KD Error 2.90E-10, R^2 0.9993. The protocol: (§1) Kinetics experiments were performed using the ForteBio Octet Red96 platform. All data were collected at 25° C. with orbital shaking at 1,000 rpm in 200 μL in 96-well black flat bottom plates (Greiner Bio-one). Anti-hIgG Fc Capture Sensor (ForteBio) were equilibrated for 10 min in 1×kinetics buffer prior to loading with 5 μg/mL of mAbs for 2 min. After the loading step, a 30 s baseline in 1×kinetics buffer was established before association with a range of concentrations of GPC3 for 2 min. Following mAbs association with GP, there was a 10-minute of dissociation step in kinetic buffer. For all experiments, two reference sensors without association to mAbs were used to account for nonspecific binding of analyte to the sensor and the system drift. All data were fit globally to a 1:1 Langmuir binding model using data analysis software 9.0 (ForteBio).

Assay [3] shares this target. Kind of assay: BLI, 1:1 global fit; kon Error 8.02E+01, R^2 0.9993. The protocol: as §1
(In BLI a coated tip is dipped into the sample, and binding shifts an interference pattern.)

Assay [4] shares this target. Briefly: BLI, 1:1 global fit; kdis(1/s); kdis Error 1.83E-06, R^2 0.9993. The protocol: as §1
The target is the same in assay [5]. Briefly: BLI (Octet Red96), mAb captured on anti-hIgG Fc sensor, GPC3 as analyte, 1:1 fit, 25 C; BLI, soluble hGPC3. The method, then: as §1
(§2) The 3 mAbs belong to different Ig classes, i.e., 6G11 and 12D7 are IgM, whereas 8F8 is IgG2a. To fairly compare their affinity, mAbs were generated recombinant using their VL and VH and a same human IgG constant region. Fig.3A illustrates the structure of the recombinant mAbs. The mAbs were expressed and purified from 293 cells (FIG 3B). […] The mAb's affinity was also studied by BioLayer Interferometry (BLI). […] The affinity data obtained by ELISA assay and BLI are in the same order, i.e., 6G11>12D7>8F8. Because the purpose of developing the mAbs is to bind hGPC3 molecules on the tumor cell surface, we determined the affinity of the mAbs for hGPC3 on HepG2 cells.

Assay [6] addresses T2, hGPC3 on the surface of HCC tumor cells (HepG2; hGPC3low Huh7) (human, UniProt P51654 25-554).
T2 construct: whole, on cells; GPI-anchored; also called hGPC3 on HepG2 cells; hGPC3 molecules on the tumor cell surface
Briefly: immunofluorescent staining of HepG2 cells at different mAb concentrations, percent positive cells; hGPC3 on HepG2 cells.
Text: FIG. 3A is an illustration showing the schematic structure of the recombinant mAbs. SP: signal peptide of human IgG; VL: variable region of light chain; VH: variable region of heavy chain; CL: constant region of human IgG light chain; CH: constant region of human IgG heavy chain. FIG. 3B is gel showing PAGE analysis of purified recombinant mAbs under reduced and non-reduced condition. mAbs were purified from the 293 cells after co-transfection of the L and H chain expressing plasmids. Gel was stained with SimplyBlue SafeStain, FIG. 3C is a graph showing the EC50 of recombinant mAbs by ELISA. FIG. 3D is a panel of graphs showing the Kd value of each mAbs was measured by BLI. Each experiment was repeated at least 3 times and similar data were obtained. FIG. 3E is a graph showing the Kd value of mAbs 6G11, 8F8, and 12D7 for staining HepG2 tumor cells. Immunofluorescent staining was conducted for HepG2 tumor cells using the mAbs at different concentration. Based on the percent of positive cells and the mAb concentration, the Kd value was calculated by Prism software.
as §2

Assay [7] has as its target T3, hGPC3-N fragment (AA1-358) (human, UniProt P51654 25-358).
T3 construct: range 1-358; Detected by intracellular staining or western blot of transfected 293/293T cells
Kind of assay: flow cytometry, intracellular staining of 293 cells transfected with hGPC3-N; gate set on untransfected cells. An excerpt:
FIG. 1A is a table of 22 hGPC3-specific mAbs identified by ELISA assay. Their Ig class, staining of HepG2 cells, and binding of the hGPC3 N- or C-fragment were provided. […] FIG. 1B is a panel of micrographs showing representative immunofluorescent stainings of HepG2 tumor cells by 5 mAbs. FIG. 1C is a diagram of plasmids expressing the N- and C-fragments of hGPC3. FIG. 1D is a panel of graphs showing 293 cells transfected with either hGPC3-N or hGPC3-C plasmid intracellularly stained with indicated mAbs. The gate was set by the parental 293T cells without transfection.
For orientation: A flow cytometer gives signals particle by particle.

In assay [8] the target is T1, soluble hGPC3 protein (recombinant …). Briefly: BLI, 1:1 global fit; KD Error 8.68E-11, R^2 0.9939. The method, then: as §1
Assay [9] has as its target T4, N1 peptide (AA25-39 of hGPC3) (human, UniProt P51654 25-39).
T4 construct: range 25-39
T4 peptide (looked up): QPPPPPPDATCHQVR
Briefly: ELISA on plate-coated synthetic peptide, anti-human IgG-HRP. The protocol:
(§3) 96-well Flat-Bottom Immuno Plates (from Thermo Fisher) were coated with 4 ug of PBS-diluted peptides, overnight, at […]. 1 ug of rhGPC3 (from Creative Biomart) was used as positive control. The next day, peptides were discarded and plates were blocked with 100 μl of 5% non-fat milk in PBS. Then, the plates were washed with 300 μl/well of PBST (0.1% Tween20). Next, incubation with 100 uL/well of different antibody dilutions. This was followed by four washes with PBST. Then, incubation with 100 uL/well of anti-human IgG-HRP (From KPL) (1:2000 dilution). This was followed by four washes with PBST. Next, 100 uL/well of TMB (from Biolengend), incubation for 30 minutes. Then, 100 uL/well of 2N H2SO4. Lastly, OD450 nm was detected in an xMark™ Microplate Spectrophotometer (from BIO-RAD). If not indicated otherwise, incubations were performed for 1 hour at RT, and antibodies were diluted in 2% non-fat milk in PBS.
(ELISA stands for enzyme-linked immunosorbent assay.)

Assay [10] concerns the target T1, soluble hGPC3 protein (recombinant …). Kind of assay: BLI, 1:1 global fit; kon Error 4.12E+02, R^2 0.9939. The protocol:
as §1

Assay [11] has the same target. Briefly: BLI, 1:1 global fit; kdis(1/s); kdis Error 3.37E-06, R^2 0.9939. The method, then:
as §1

Assay [12] shares this target. Kind of assay: BLI, 1:1 global fit; KD Error 9.61E-11, R^2 0.9958. The method, then:
as §1

Assay [13] has as its target T5, N2 (30-68) (human, UniProt P51654).
T5 construct: overlapping synthetic peptide
T5 peptide (looked up): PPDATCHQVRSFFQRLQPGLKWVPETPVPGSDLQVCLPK
Briefly: ELISA on plate-coated synthetic peptide, anti-human IgG-HRP. The method, then:
as §3

Assay [14] addresses T6, N3 (59-97) (human, UniProt P51654).
T6 construct: overlapping synthetic peptide
T6 peptide (looked up): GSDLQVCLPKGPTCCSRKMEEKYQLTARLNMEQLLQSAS
Described as above. The protocol: as §3

Assay [15] has as its target T7, N4 (88-126) (human, UniProt P51654).
T7 construct: overlapping synthetic peptide
T7 peptide (looked up): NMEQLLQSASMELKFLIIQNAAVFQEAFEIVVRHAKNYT
Described as above. The protocol: as §3

In assay [16] the target is T1, soluble hGPC3 protein (recombinant …). Briefly: BLI, 1:1 global fit; kon Error 2.81E+02, R^2 0.9958. The method, then: as §1
Assay [17] has the same target. Kind of assay: BLI, 1:1 global fit; kdis(1/s); kdis Error 2.89E-06, R^2 0.9958. The protocol: as §1

T3 sequence (P51654 25-358 limits assumed, form in doubt): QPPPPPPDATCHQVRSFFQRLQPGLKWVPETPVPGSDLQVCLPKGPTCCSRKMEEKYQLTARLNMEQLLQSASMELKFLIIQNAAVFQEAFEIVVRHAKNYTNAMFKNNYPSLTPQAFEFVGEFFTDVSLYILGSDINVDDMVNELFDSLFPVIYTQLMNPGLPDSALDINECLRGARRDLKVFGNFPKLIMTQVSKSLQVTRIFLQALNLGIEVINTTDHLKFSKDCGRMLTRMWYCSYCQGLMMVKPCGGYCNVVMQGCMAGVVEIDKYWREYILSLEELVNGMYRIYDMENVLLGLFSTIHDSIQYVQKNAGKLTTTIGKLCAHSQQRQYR
T2 sequence (P51654 25-554 limits assumed): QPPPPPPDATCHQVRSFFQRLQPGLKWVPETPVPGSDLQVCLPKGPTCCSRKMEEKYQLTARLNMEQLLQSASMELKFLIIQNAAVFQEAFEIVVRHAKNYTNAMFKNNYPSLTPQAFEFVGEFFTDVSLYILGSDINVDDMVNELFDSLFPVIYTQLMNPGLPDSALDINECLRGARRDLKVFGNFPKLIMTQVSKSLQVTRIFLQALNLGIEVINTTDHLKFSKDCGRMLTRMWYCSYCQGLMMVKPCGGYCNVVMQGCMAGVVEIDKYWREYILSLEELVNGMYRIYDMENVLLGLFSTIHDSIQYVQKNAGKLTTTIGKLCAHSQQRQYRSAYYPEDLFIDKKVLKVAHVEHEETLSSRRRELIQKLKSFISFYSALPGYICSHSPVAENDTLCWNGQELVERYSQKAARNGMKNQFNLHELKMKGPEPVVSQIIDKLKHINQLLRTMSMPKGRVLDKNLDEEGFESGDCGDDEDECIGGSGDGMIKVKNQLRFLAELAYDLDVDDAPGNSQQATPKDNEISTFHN

B1: recombinant mAb 8F8 (8F8 VL and VH fused to human IgG constant regions) (antibody, V domains shown)
VH: EVKLVESGGDLVKPGGSLKLSCAASGFTFSRYGLSWVRQTPEKRLEWVATISGSGSYTYYPDSVKGRFTISRDNAKNNLYLQMSSLRSEDTALYYCVRRGTYGYDNWGQGTTLTVSS
VL: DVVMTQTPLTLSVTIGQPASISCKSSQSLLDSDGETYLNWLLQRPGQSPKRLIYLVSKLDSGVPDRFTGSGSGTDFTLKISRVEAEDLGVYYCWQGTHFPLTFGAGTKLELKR
notes: Expressed in 293 cells; only the claims assign heavy and light; also called 8F8 mAb
With B1, the concentration giving a half-maximal response (EC50) in assay [1] is 0.294 µg/mL and 1.93 nM; in assay [6], 12 nM. Further, the Kd in assay [2] was determined as 22.9 nM; in [5], 23 nM. Also, the association rate constant (kon) in assay [3] is 8970 M⁻¹ s⁻¹. Further, the koff in assay [4] worked out at 0.000206 s⁻¹.

B2: mAb 8F8 (mouse hybridoma antibody) (antibody, V domains shown)
VH: B1 VH
VL: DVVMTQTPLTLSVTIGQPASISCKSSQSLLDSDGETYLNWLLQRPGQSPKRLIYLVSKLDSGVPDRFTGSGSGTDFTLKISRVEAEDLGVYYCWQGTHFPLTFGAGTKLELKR
notes: Mouse IgG2a with kappa light chain, from hybridoma
For the molecule B2, the “% of cells in the positive gate” value in assay [7] stood at 0.31%.

B3: recombinant mAb 6G11 (6G11 VL and VH fused to human IgG constant regions) (antibody, V domains shown)
VH: QVQLQQPGSELVRPGASVKLSCKASGYTFTSCWMHWVKQRPGQGLEWIGNIYPGYGNTNYDEKFKNKATLTVDTSSSTAYMQLSGLTSEDSAVYYCTRGSYLYAMDYWGQGTSVTVSS
VL: DIQMNQSPSSLSASLGDTITITCHASQNINVWLSWYQQKPGNIPKLLIYKASNLHTGVPSRFSGSGSGTGFTLTISSLQPEDIATYYCQQGQSYPWTFGGGTKLEIKR
notes: Expressed in 293 cells; only the claims assign heavy and light; also called 6G11 mAb
With B3, the concentration giving a half-maximal response (EC50) in [1] was 0.0072 µg/mL and 0.047 nM; in [6], 0.095 nM. The Kd turned out to be 7.43 nM in [8] and 7.4 nM in [5]. In addition, the binding result in assay [9] is recorded as “binds”. The kon in assay [10] amounted to 52400 M⁻¹ s⁻¹. For the same molecule, the koff in assay [11] turned out to be 0.000389 s⁻¹.

B4: mAb 6G11 (mouse hybridoma antibody) (antibody, V domains shown)
VH: B3 VH
VL: B3 VL
notes: Mouse IgM with kappa light chain, from hybridoma; claim 21 names 5 and 7 as the amino acid entries
B4: the “% of cells in the positive gate” value in assay [7] is 44.3%.

B5: recombinant mAb 12D7 (12D7 VL and VH fused to human IgG constant regions) (antibody, V domains shown)
VH: QVQLQQPGSELVRPGASVKLSCKASGYTFTSYWMHWVKQRLGQGLEWIGNIYPGSGSTNYDEKFKSKGTLTVDTSSSTAYMHLSSLTSEDSAVYYCTRGDYDWVFAYWGQGTLVTVSA
VL: DIVMTQSQKFMSTSVGDRVSVTCKASQNVGTNVAWYQQKPGQSPKALIYSASYRYSGVPDRFTGSGSGTDFTLTISNVQSEDLAEYFCQQYNSYPLTFGAGTKLELKR
notes: Expressed in 293 cells; only the claims assign heavy and light; also called 12D7 mAb
Regarding B5, the EC50 in assay [1] is 0.125 µg/mL and 0.82 nM; in assay [6], 0.1 nM. For the same molecule, the “EC50 (read off the curve)” value in [1] was about 0.1 µg/mL. Besides, the dissociation constant Kd in [12] worked out at 9.76 nM; in [5] it was 9.8 nM. Moreover, the binding result in assay [13], in [14], in assay [15] and in assay [9] was “no binding (tested: 10 µg/ml)” each time. Besides, the kon in assay [16] came to 41500 M⁻¹ s⁻¹. The off-rate (koff) in assay [17] stood at 0.000405 s⁻¹.

B6: mAb 12D7 (mouse hybridoma antibody) (antibody, V domains shown)
VH: B5 VH
VL: B5 VL
notes: Mouse IgM with kappa light chain, from hybridoma
Regarding B6, in [7], the “% of cells in the positive gate” value is 43.2%.
